Measured values: paper PMC8026774 (Cellular and molecular neurobiology, 2020)
Where no end group is shown, it is not given here.

Assays:
MOR-TR-PK = MOR-TR-PK (mouse); test: cell-based or functional assay
MOR-1B1-PK = MOR-1B1-PK (mouse); test: cell-based or functional assay
MOR-1A-PK = MOR-1A-PK (mouse); test: cell-based or functional assay
MOR-1-PK [1] = target: T1, MOR-1-PK (mouse, UniProt P42866 1-398); test: cell-based or functional assay
MOR-1E-PK = MOR-1E-PK (mouse); test: cell-based or functional assay
MOR-1-PK [2] = target: T1, MOR-1-PK; test: radioligand binding
MOR-1 (untagged) = MOR-1 (untagged) (mouse, UniProt P42866 1-398); test: radioligand binding
MOR-1 (untagged), sequence (P42866 whole entry): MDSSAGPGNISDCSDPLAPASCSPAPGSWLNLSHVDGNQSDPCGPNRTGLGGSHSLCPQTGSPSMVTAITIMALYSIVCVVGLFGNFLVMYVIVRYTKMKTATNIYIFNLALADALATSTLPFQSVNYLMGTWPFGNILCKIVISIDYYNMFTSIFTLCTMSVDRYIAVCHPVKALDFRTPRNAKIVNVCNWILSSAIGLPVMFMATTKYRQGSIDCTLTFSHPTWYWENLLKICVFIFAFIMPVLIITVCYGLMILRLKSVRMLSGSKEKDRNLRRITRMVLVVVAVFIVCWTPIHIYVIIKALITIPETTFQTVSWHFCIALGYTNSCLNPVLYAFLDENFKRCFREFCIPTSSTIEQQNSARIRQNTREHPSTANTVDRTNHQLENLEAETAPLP

T1 sequence (P42866 whole entry): as above
MOR-TR-PK (mouse), sequence (P42866 whole entry): as above
MOR-1A-PK (mouse), sequence (P42866 whole entry): as above
MOR-1B1-PK (mouse), sequence (P42866 whole entry): as above
MOR-1E-PK (mouse), sequence (P42866 whole entry): as above

With YGGFMTSEKSQTPLVTLFKNAIIKNAYKKGE (not fully specified) [β-endorphin] the “[35S]GTPγS binding (G-protein activation), EC50” value (from here on “[35S]GTPγS binding”) (MOR-TR-PK) was 691 nM, the “[35S]GTPγS binding” value (MOR-1B1-PK) was 141 nM and the “[35S]GTPγS binding” value (MOR-1A-PK) was 112 nM. The “[35S]GTPγS binding” value (MOR-1-PK [1]) was 118 nM, the “[35S]GTPγS binding” value (MOR-1E-PK) was 23 nM and the Ki (MOR-1-PK [2]) was 10.4 nM. It also gave a Ki (MOR-1 (untagged)) of 6.22 nM.
